Here are results for 13 molecules from publication PMC10850148.

Numbering of substitutions follows the chain as printed. In names and notes the source's numbering stands.

Usually Kd stands for the concentration at which binding is half-saturated.

The target of experiment [1] is AtGATA18 ZnF domain (Arabidopsis thaliana) (UniProt Q8LC79). Briefly: ITC.
In experiment [2] the target is AtSPL5 ZnF domain (residues 60-124) (Arabidopsis thaliana) (UniProt Q9S758). Put plainly: ITC. On the technique in general: In ITC the heat of successive injections is recorded.
Experiment [3] deals with MqGATA triple mutant (Y-R, M-K, N-R) (Macrosteles quadrilineatus). Put plainly: ITC.
In a further experiment the target is AtGATA18 ZnF domain (UniProt Q8LC79). Put plainly: ITC.
Experiment [4] has as its target AtSPL5 ZnF domain (residues 60-124) (UniProt Q9S758). Briefly: ITC.
Experiment [5] addresses AtSPL5 ZnF domain (residues 60-124) (Arabidopsis thaliana) (UniProt Q9S758). Put plainly: ITC; MicroCal PEAQ-ITC, 16 °C, 20 mM Tris-HCl pH 7.5, 150 mM NaCl; 660-700 μM protein injected into 40-50 μM protein in the cell; SAP05 titrated to the transcription factor; one-site model.
Experiment [6] addresses AtGATA18 ZnF domain (Arabidopsis thaliana) (UniProt Q8LC79). The experiment is described as above.
The target in experiment [7] is T1, OY-M SAP05 (residues 33-135).
T1 chain: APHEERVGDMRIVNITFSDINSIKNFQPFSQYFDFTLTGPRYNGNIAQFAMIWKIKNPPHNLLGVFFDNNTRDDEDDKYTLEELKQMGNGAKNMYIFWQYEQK
Put plainly: ITC. The settings on record: chain shown with the change.

As for “OY-M SAP05 (residues 33-135) (domain or fragment)”, the Kd is 140 nM in experiment [1], 420 nM in experiment [2] and 900 nM in experiment [3].

Take OY-M SAP05 (residues 33-135) D106A: the Kd in the experiment with AtGATA18 ZnF domain worked out at 4000 nM.

Consider OY-M SAP05 (residues 33-135) D108A, for which, in the experiment with AtGATA18 ZnF domain, the Kd was 5400 nM.

Regarding OY-M SAP05 (residues 33-135) E107A, the figures for the Kd (with AtGATA18 ZnF domain; in experiment [4]) were 1300 nM and 6300 nM, respectively.

In the case of OY-M SAP05 (residues 33-135) I84A, the Kd in the experiment with AtGATA18 ZnF domain was > 100000 nM.

Take OY-M SAP05 E107A (domain or fragment): the fold decrease of binding affinity against wild-type SAP05 in experiment [5] worked out at 15 fold.

Regarding “WBDLa SAP05 double mutant M86I-K70T (natural protein)”, the Kd in experiment [6] came to 2700 nM; in experiment [5], 2600 nM.

As for “binary complex AtRPN10-SAP05 (from UniProt P55034 33-135; P55034 1-193)”, the results for the Kd in experiment [1] and in experiment [2] were 100 nM and 370 nM, respectively.

B1: AtSPL5 ZnF domain (residues 60-124), Q9S758 S108A (protein)
chain: SRLCQVDRCTVNLTEAKQYYRRHRVCEVHAKASAATVAGVRQRFCQQCARFHELPEFDEAKRSCR
For B1, the Kd in experiment [7] stood at 1400 nM.

B2: AtGATA18 ZnF domain, Q8LC79 R182A (protein)
chain: GDSLLARRCANCDTTSTPLWRNGPRGPKSLCNACGIAFKKEERRTTAATGNT
In experiment [7], B2 yielded a Kd of 4400 nM.

B3: AtGATA18 ZnF domain, Q8LC79 I181A (protein)
chain: B2 chain with I36A, A37R
The molecule B3 displayed a Kd in experiment [7] of 5000 nM.

B4: AtGATA18 ZnF domain, Q8LC79 R188A (protein)
chain: B2 chain with A37R, R43A
Take B4: in experiment [7], the Kd came to 500 nM.

B5: AtGATA18 ZnF domain, Q8LC79 K185A (protein)
chain: B2 chain with A37R, K40A
Consider B5, for which the Kd in experiment [7] was found to be 580 nM.
